Experimental data as given in US20220168396A1, “MULTI-RECEPTOR AGONIST AND MEDICAL USE THEREOF” (published 2022).
Square brackets hold non-standard residues; d marks the D form. Ends that are not written are not given here. Aib = CC(C)(N)C(=O)O

B1: Compound No. 17 (peptide)
peptide: Y[Aib]EGTFTSDYSIYLEKEA[Aib]KEFVNWLLAGGPSSGAPPPSK-NH2
modifications: N-terminus assumed
SMILES: CC[C@H](C)[C@H](NC(=O)[C@H](CO)NC(=O)[C@H](Cc1ccc(O)cc1)NC(=O)[C@H](CC(=O)O)NC(=O)[C@H](CO)NC(=O)[C@@H](NC(=O)[C@H](Cc1ccccc1)NC(=O)[C@@H](NC(=O)CNC(=O)[C@H](CCC(=O)O)NC(=O)C(C)(C)NC(=O)[C@@H](N)Cc1ccc(O)cc1)[C@@H](C)O)[C@@H](C)O)C(=O)N[C@@H](Cc1ccc(O)cc1)C(=O)N[C@@H](CC(C)C)C(=O)N[C@@H](CCC(=O)O)C(=O)N[C@@H](CCCCN)C(=O)N[C@@H](CCC(=O)O)C(=O)N[C@@H](C)C(=O)NC(C)(C)C(=O)N[C@@H](CCCCN)C(=O)N[C@@H](CCC(=O)O)C(=O)N[C@@H](Cc1ccccc1)C(=O)N[C@H](C(=O)N[C@@H](CC(N)=O)C(=O)N[C@@H](Cc1c[nH]c2ccccc12)C(=O)N[C@@H](CC(C)C)C(=O)N[C@@H](CC(C)C)C(=O)N[C@@H](C)C(=O)NCC(=O)NCC(=O)N1CCC[C@H]1C(=O)N[C@@H](CO)C(=O)N[C@@H](CO)C(=O)NCC(=O)N[C@@H](C)C(=O)N1CCC[C@H]1C(=O)N1CCC[C@H]1C(=O)N1CCC[C@H]1C(=O)N[C@@H](CO)C(=O)N[C@@H](CCCCN)C(N)=O)C(C)C
B2: Compound No. 18 (peptide)
peptide: Y[Aib]EGTFTSDYSIYLE[Aib]IAAQEFVNWLLAGGPSSGAPPPSK-NH2
modifications: N-terminus assumed
SMILES: CC[C@H](C)[C@H](NC(=O)[C@H](CO)NC(=O)[C@H](Cc1ccc(O)cc1)NC(=O)[C@H](CC(=O)O)NC(=O)[C@H](CO)NC(=O)[C@@H](NC(=O)[C@H](Cc1ccccc1)NC(=O)[C@@H](NC(=O)CNC(=O)[C@H](CCC(=O)O)NC(=O)C(C)(C)NC(=O)[C@@H](N)Cc1ccc(O)cc1)[C@@H](C)O)[C@@H](C)O)C(=O)N[C@@H](Cc1ccc(O)cc1)C(=O)N[C@@H](CC(C)C)C(=O)N[C@@H](CCC(=O)O)C(=O)NC(C)(C)C(=O)N[C@H](C(=O)N[C@@H](C)C(=O)N[C@@H](C)C(=O)N[C@@H](CCC(N)=O)C(=O)N[C@@H](CCC(=O)O)C(=O)N[C@@H](Cc1ccccc1)C(=O)N[C@H](C(=O)N[C@@H](CC(N)=O)C(=O)N[C@@H](Cc1c[nH]c2ccccc12)C(=O)N[C@@H](CC(C)C)C(=O)N[C@@H](CC(C)C)C(=O)N[C@@H](C)C(=O)NCC(=O)NCC(=O)N1CCC[C@H]1C(=O)N[C@@H](CO)C(=O)N[C@@H](CO)C(=O)NCC(=O)N[C@@H](C)C(=O)N1CCC[C@H]1C(=O)N1CCC[C@H]1C(=O)N1CCC[C@H]1C(=O)N[C@@H](CO)C(=O)N[C@@H](CCCCN)C(N)=O)C(C)C)[C@@H](C)CC
B3: Compound No. 15 (peptide)
peptide: Y[Aib]EGTFTSDYSIYLEKIAQKEFVNWLLAGGPSSGAPPPSK-NH2
modifications: N-terminus assumed
SMILES: CC[C@H](C)[C@H](NC(=O)[C@H](CCCCN)NC(=O)[C@H](CCC(=O)O)NC(=O)[C@H](CC(C)C)NC(=O)[C@H](Cc1ccc(O)cc1)NC(=O)[C@@H](NC(=O)[C@H](CO)NC(=O)[C@H](Cc1ccc(O)cc1)NC(=O)[C@H](CC(=O)O)NC(=O)[C@H](CO)NC(=O)[C@@H](NC(=O)[C@H](Cc1ccccc1)NC(=O)[C@@H](NC(=O)CNC(=O)[C@H](CCC(=O)O)NC(=O)C(C)(C)NC(=O)[C@@H](N)Cc1ccc(O)cc1)[C@@H](C)O)[C@@H](C)O)[C@@H](C)CC)C(=O)N[C@@H](C)C(=O)N[C@@H](CCC(N)=O)C(=O)N[C@@H](CCCCN)C(=O)N[C@@H](CCC(=O)O)C(=O)N[C@@H](Cc1ccccc1)C(=O)N[C@H](C(=O)N[C@@H](CC(N)=O)C(=O)N[C@@H](Cc1c[nH]c2ccccc12)C(=O)N[C@@H](CC(C)C)C(=O)N[C@@H](CC(C)C)C(=O)N[C@@H](C)C(=O)NCC(=O)NCC(=O)N1CCC[C@H]1C(=O)N[C@@H](CO)C(=O)N[C@@H](CO)C(=O)NCC(=O)N[C@@H](C)C(=O)N1CCC[C@H]1C(=O)N1CCC[C@H]1C(=O)N1CCC[C@H]1C(=O)N[C@@H](CO)C(=O)N[C@@H](CCCCN)C(N)=O)C(C)C
B4: Compound No. 13 (peptide)
peptide: Y[Aib]EGTFTSDYSIYLEKIAAKEFVNWLLAGGPSSGAPPPSK-NH2
modifications: N-terminus assumed
SMILES: CC[C@H](C)[C@H](NC(=O)[C@H](CCCCN)NC(=O)[C@H](CCC(=O)O)NC(=O)[C@H](CC(C)C)NC(=O)[C@H](Cc1ccc(O)cc1)NC(=O)[C@@H](NC(=O)[C@H](CO)NC(=O)[C@H](Cc1ccc(O)cc1)NC(=O)[C@H](CC(=O)O)NC(=O)[C@H](CO)NC(=O)[C@@H](NC(=O)[C@H](Cc1ccccc1)NC(=O)[C@@H](NC(=O)CNC(=O)[C@H](CCC(=O)O)NC(=O)C(C)(C)NC(=O)[C@@H](N)Cc1ccc(O)cc1)[C@@H](C)O)[C@@H](C)O)[C@@H](C)CC)C(=O)N[C@@H](C)C(=O)N[C@@H](C)C(=O)N[C@@H](CCCCN)C(=O)N[C@@H](CCC(=O)O)C(=O)N[C@@H](Cc1ccccc1)C(=O)N[C@H](C(=O)N[C@@H](CC(N)=O)C(=O)N[C@@H](Cc1c[nH]c2ccccc12)C(=O)N[C@@H](CC(C)C)C(=O)N[C@@H](CC(C)C)C(=O)N[C@@H](C)C(=O)NCC(=O)NCC(=O)N1CCC[C@H]1C(=O)N[C@@H](CO)C(=O)N[C@@H](CO)C(=O)NCC(=O)N[C@@H](C)C(=O)N1CCC[C@H]1C(=O)N1CCC[C@H]1C(=O)N1CCC[C@H]1C(=O)N[C@@H](CO)C(=O)N[C@@H](CCCCN)C(N)=O)C(C)C
B5: Compound No. 16 (peptide)
peptide: Y[Aib]EGTFTSDYSIYLEKE[Aib]AKEFVNWLLAGGPSSGAPPPSK-NH2
modifications: N-terminus assumed
SMILES: CC[C@H](C)[C@H](NC(=O)[C@H](CO)NC(=O)[C@H](Cc1ccc(O)cc1)NC(=O)[C@H](CC(=O)O)NC(=O)[C@H](CO)NC(=O)[C@@H](NC(=O)[C@H](Cc1ccccc1)NC(=O)[C@@H](NC(=O)CNC(=O)[C@H](CCC(=O)O)NC(=O)C(C)(C)NC(=O)[C@@H](N)Cc1ccc(O)cc1)[C@@H](C)O)[C@@H](C)O)C(=O)N[C@@H](Cc1ccc(O)cc1)C(=O)N[C@@H](CC(C)C)C(=O)N[C@@H](CCC(=O)O)C(=O)N[C@@H](CCCCN)C(=O)N[C@@H](CCC(=O)O)C(=O)NC(C)(C)C(=O)N[C@@H](C)C(=O)N[C@@H](CCCCN)C(=O)N[C@@H](CCC(=O)O)C(=O)N[C@@H](Cc1ccccc1)C(=O)N[C@H](C(=O)N[C@@H](CC(N)=O)C(=O)N[C@@H](Cc1c[nH]c2ccccc12)C(=O)N[C@@H](CC(C)C)C(=O)N[C@@H](CC(C)C)C(=O)N[C@@H](C)C(=O)NCC(=O)NCC(=O)N1CCC[C@H]1C(=O)N[C@@H](CO)C(=O)N[C@@H](CO)C(=O)NCC(=O)N[C@@H](C)C(=O)N1CCC[C@H]1C(=O)N1CCC[C@H]1C(=O)N1CCC[C@H]1C(=O)N[C@@H](CO)C(=O)N[C@@H](CCCCN)C(N)=O)C(C)C
B6: Compound No. 14 (peptide)
peptide: Y[Aib]EGTFTSDYSIYLEKIAAQEFVNWLLAGGPSSGAPPPSK-NH2
modifications: N-terminus assumed
SMILES: CC[C@H](C)[C@H](NC(=O)[C@H](CCCCN)NC(=O)[C@H](CCC(=O)O)NC(=O)[C@H](CC(C)C)NC(=O)[C@H](Cc1ccc(O)cc1)NC(=O)[C@@H](NC(=O)[C@H](CO)NC(=O)[C@H](Cc1ccc(O)cc1)NC(=O)[C@H](CC(=O)O)NC(=O)[C@H](CO)NC(=O)[C@@H](NC(=O)[C@H](Cc1ccccc1)NC(=O)[C@@H](NC(=O)CNC(=O)[C@H](CCC(=O)O)NC(=O)C(C)(C)NC(=O)[C@@H](N)Cc1ccc(O)cc1)[C@@H](C)O)[C@@H](C)O)[C@@H](C)CC)C(=O)N[C@@H](C)C(=O)N[C@@H](C)C(=O)N[C@@H](CCC(N)=O)C(=O)N[C@@H](CCC(=O)O)C(=O)N[C@@H](Cc1ccccc1)C(=O)N[C@H](C(=O)N[C@@H](CC(N)=O)C(=O)N[C@@H](Cc1c[nH]c2ccccc12)C(=O)N[C@@H](CC(C)C)C(=O)N[C@@H](CC(C)C)C(=O)N[C@@H](C)C(=O)NCC(=O)NCC(=O)N1CCC[C@H]1C(=O)N[C@@H](CO)C(=O)N[C@@H](CO)C(=O)NCC(=O)N[C@@H](C)C(=O)N1CCC[C@H]1C(=O)N1CCC[C@H]1C(=O)N1CCC[C@H]1C(=O)N[C@@H](CO)C(=O)N[C@@H](CCCCN)C(N)=O)C(C)C

How the values were obtained:
[1] = target: T1, human glucose-dependent insulinotropic peptide receptor (human, UniProt P48546); experiment: cell-based or functional assay
T1 sequence: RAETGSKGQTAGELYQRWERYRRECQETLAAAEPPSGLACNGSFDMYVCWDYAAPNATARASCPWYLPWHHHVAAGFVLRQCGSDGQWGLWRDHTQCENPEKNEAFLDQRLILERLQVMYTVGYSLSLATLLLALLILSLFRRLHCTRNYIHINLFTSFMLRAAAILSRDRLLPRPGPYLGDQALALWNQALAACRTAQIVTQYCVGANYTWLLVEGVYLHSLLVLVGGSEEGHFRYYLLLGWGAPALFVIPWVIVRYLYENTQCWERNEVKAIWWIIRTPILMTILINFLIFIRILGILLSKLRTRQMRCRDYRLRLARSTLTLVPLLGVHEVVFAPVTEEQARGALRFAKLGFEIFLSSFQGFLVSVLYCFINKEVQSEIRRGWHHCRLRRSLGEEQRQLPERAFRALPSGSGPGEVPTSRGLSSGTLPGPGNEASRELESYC

[2] = target: human glucagon-like peptide-1 receptor (human, UniProt P43220); experiment: cell-based or functional assay

Row | Binder | Activity for human GIPR (EC50 nM), cAMP HTRF [1] [nM] | Activity for human GLP-1R (EC50 nM), cAMP HTRF [2] [nM]
1 | B1 | 0.057 | 0.01
2 | B2 | 0.012 | 0.022
3 | B3 | 0.009 | 0.015
4 | B4 | 0.017 | 0.013
5 | B5 | 0.018 | 0.007
6 | B6 | 0.006 | 0.008
